Bridge positions count the residues as written; N and C are the ends. Square brackets hold non-standard residues; d marks the D form. Primed or numbered codes have the meaning given here. Ends that are not written are not given here. * marks the point of attachment. FITC = O=C1OC2(c3ccc(O)cc3Oc3cc(O)ccc32)c2ccc(NC(=S)*)cc21; PEG2′ = not defined here; Peg = not defined here Where only a bound is given, the exact number is not on record here.

Consider 15 molecules from publication PMC7591920 (Nature Communications, 2020).

What all share (conditions): both partners purified
Assay [1] addresses T1, mouse TEAD4(210-427) (mouse, UniProt Q62296 210-427).
T1 construct: mouse TEAD4, residues 210-427; The tag was cleaved with 3C protease only for the crystallisation; nothing is said for SPR and FP; also called mTEAD4; source: E. coli BL21 DE3 RIL, purified (His Trap, SEC)
Put plainly: fluorescence polarisation; direct: FITC-labelled peptide (10 nM) titrated with hTEAD1 or mTEAD4; 10 mM HEPES, 150 mM NaCl, 0.1% Tween-20, pH 7.4; read after 1 h.

Assay [2] addresses T2, GST-hTEAD1(209-426) (human, UniProt P28347 209-426).
T2 construct: A 3C protease site stands between tags and protein; also called human TEAD1; source: E. coli BL21 DE3 RIL, purified (His Trap, SEC); not shown: GST, N-terminal, kept
The assay is described as above.

In assay [3] the target is T1, mouse TEAD4(210-427). Kind of assay: SPR; GST-hTEAD1 or mTEAD4 amine-coupled to a CM5 chip (10 mM MES pH 6.4), peptides as analytes; 10 mM HEPES, 150 mM NaCl, 0.05% Tween-20, pH 7.4, 20 °C, 30 µL/min; steady-state fit, 1:1 model.
Assay [4] deals with T2, GST-hTEAD1(209-426). The description is as above.
For assay [5], the target named is T1, mouse TEAD4(210-427). Kind of assay: fluorescence polarisation; competition: acetylated peptide titrated (50 µM-6 pM) against mTEAD4 (400 nM) with a FITC-labelled tracer peptide (10 nM; tracer not named); read after 1 h.

T1 sequence (Q62296 210-427): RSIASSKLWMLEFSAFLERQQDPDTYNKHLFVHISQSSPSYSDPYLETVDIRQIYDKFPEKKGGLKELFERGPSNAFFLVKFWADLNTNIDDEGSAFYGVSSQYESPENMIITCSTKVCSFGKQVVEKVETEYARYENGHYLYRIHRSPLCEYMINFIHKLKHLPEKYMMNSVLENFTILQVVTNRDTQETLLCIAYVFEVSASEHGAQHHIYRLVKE
T2 sequence (P28347 209-426): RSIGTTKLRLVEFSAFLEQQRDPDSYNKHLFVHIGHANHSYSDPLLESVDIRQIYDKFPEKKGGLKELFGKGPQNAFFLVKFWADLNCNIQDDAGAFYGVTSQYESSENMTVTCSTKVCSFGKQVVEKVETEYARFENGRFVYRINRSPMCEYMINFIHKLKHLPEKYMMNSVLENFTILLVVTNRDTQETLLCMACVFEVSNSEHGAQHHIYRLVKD

B1: FITC-labelled peptide 4E (peptide)
peptide: {FITC-Peg}-SVEDHFAKALGDTWLQIKAA
modifications: lactam 3-18; reading uncertain
notes: macrocyclic VGL4 two-helix motif 4E; numbers count on: mouse VGL4 as in PDB 4LN0; Rink amide resin: C-terminal amide surmised; also called 4E (FITC-Peg); source: synthetic peptide
For the molecule B1, the values for the equilibrium dissociation constant (Kd) with mouse TEAD4(210-427) [1] and in the assay with GST-hTEAD1(209-426) [2] were 32 ± 5 nM and 168 ± 37 nM, respectively.

B2: FITC-labelled peptide 7 (Tat-PEG2-4E) (peptide)
peptide: GRKKRRQRRRPQ[PEG2′]SVEDHFAKALGDTWLQIKAA
modifications: not fully specified (some residues); also: FITC label, place not given here
notes: also called 7 (FITC-Peg); source: synthetic peptide
Take B2: the Kd came to 51 ± 5 nM with mouse TEAD4(210-427) [1] and 147 ± 70 nM in the assay with GST-hTEAD1(209-426) [2].

B3: peptide 14 (alanine scan of 4E), acetylated (peptide)
peptide: Ac-AVEDHFAKALGDTWLQIKAA
modifications: lactam 3-18
notes: macrocyclic VGL4 two-helix motif 4E with one alanine; numbers count on: mouse VGL4 as in PDB 4LN0; Synthesised on Rink amide resin: C-terminal amide surmised; source: synthetic peptide
Consider B3, for which the Kd in the assay with mouse TEAD4(210-427) [3] was determined as 2700 ± 250 nM; with GST-hTEAD1(209-426) [4] it was 1500 ± 20 nM. Also, the half-maximal inhibitory concentration (IC50) with mouse TEAD4(210-427) [5] was found to be 6100 ± 4300 nM.

B4: peptide 20 (alanine scan of 4E), acetylated (peptide)
peptide: Ac-SVEDHFAKAAGDTWLQIKAA
modifications: lactam 3-18
notes: as for B3
Take B4: the equilibrium dissociation constant (Kd) with mouse TEAD4(210-427) [3] and with GST-hTEAD1(209-426) [4] was > 100000 nM throughout. Also, the 50% inhibitory concentration (IC50) with mouse TEAD4(210-427) [5] was > 100000 nM.

B5: peptide 16 (alanine scan of 4E), acetylated (peptide)
peptide: Ac-SVEAHFAKALGDTWLQIKAA
modifications: lactam 3-18
notes: as for B3
Turning to B5, the values for the Kd with mouse TEAD4(210-427) [3] and in the assay with GST-hTEAD1(209-426) [4] were 1600 ± 690 nM and 740 ± 460 nM, respectively. Moreover, the concentration for half-maximal inhibition (IC50) with mouse TEAD4(210-427) [5] worked out at 3000 ± 760 nM.

B6: peptide 24 (alanine scan of 4E), acetylated (peptide)
peptide: Ac-SVEDHFAKALGDTWAQIKAA
modifications: lactam 3-18
notes: as for B3
With B6, the dissociation constant (Kd) in the assay with mouse TEAD4(210-427) [3] came out at 2000 ± 140 nM; with GST-hTEAD1(209-426) [4], 1100 ± 60 nM. The same molecule showed an IC50 with mouse TEAD4(210-427) [5] of 100 ± 10 nM.

B7: peptide 25 (alanine scan of 4E), acetylated (peptide)
peptide: Ac-SVEDHFAKALGDTWLAIKAA
modifications: lactam 3-18
notes: as for B3
Consider B7, for which the Kd with mouse TEAD4(210-427) [3] was 1300 ± 110 nM; with GST-hTEAD1(209-426) [4] it was 750 ± 120 nM. Moreover, the concentration for half-maximal inhibition (IC50) in the assay with mouse TEAD4(210-427) [5] amounted to 60 ± 10 nM.

B8: peptide 26 (alanine scan of 4E), acetylated (peptide)
peptide: Ac-SVEDHFAKALGDTWLQAKAA
modifications: lactam 3-18
notes: as for B3
In the case of B8, the Kd with mouse TEAD4(210-427) [3] stood at 4400 ± 1350 nM; with GST-hTEAD1(209-426) [4] it was 2700 ± 1070 nM. The molecule further showed an IC50 with mouse TEAD4(210-427) [5] of 7400 ± 6100 nM.

B9: peptide 23 (alanine scan of 4E), acetylated (peptide)
peptide: Ac-SVEDHFAKALGDTALQIKAA
modifications: lactam 3-18
notes: as for B3
In turn, B9 displayed a dissociation constant (Kd) with GST-hTEAD1(209-426) [4] of 7800 ± 150 nM.

B10: peptide 19 (alanine scan of 4E), acetylated (peptide)
peptide: Ac-SVEDHFAAALGDTWLQIKAA
modifications: lactam 3-18
notes: as for B3
B10: the Kd with mouse TEAD4(210-427) [3] is 2800 ± 60 nM; with GST-hTEAD1(209-426) [4], 1700 ± 10 nM. This molecule had a half-inhibitory concentration (IC50) in the assay with mouse TEAD4(210-427) [5] of 280 ± 90 nM.

B11: peptide 22 (alanine scan of 4E), acetylated (peptide)
peptide: Ac-SVEDHFAKALGDAWLQIKAA
modifications: lactam 3-18
notes: as for B3
In the assay with GST-hTEAD1(209-426) [4], B11 had a dissociation constant (Kd) of 91000 ± 14000 nM.

B12: peptide 17 (alanine scan of 4E), acetylated (peptide)
peptide: Ac-SVEDAFAKALGDTWLQIKAA
modifications: lactam 3-18
notes: as for B3
As for B12, the Kd with mouse TEAD4(210-427) [3] and with GST-hTEAD1(209-426) [4] was > 100000 nM throughout. Also, the IC50 with mouse TEAD4(210-427) [5] was > 100000 nM.

B13: peptide 15 (alanine scan of 4E), acetylated (peptide)
peptide: Ac-SAEDHFAKALGDTWLQIKAA
modifications: lactam 3-18
notes: as for B3
As for B13, the Kd with mouse TEAD4(210-427) [3] worked out at 1500 ± 370 nM; with GST-hTEAD1(209-426) [4], 1000 ± 370 nM. In the assay with mouse TEAD4(210-427) [5], this molecule displayed an IC50 of 2100 ± 560 nM.

B14: peptide 18 (alanine scan of 4E), acetylated (peptide)
peptide: Ac-SVEDHAAKALGDTWLQIKAA
modifications: lactam 3-18
notes: as for B3
For the molecule B14, the Kd with mouse TEAD4(210-427) [3] and in the assay with GST-hTEAD1(209-426) [4] was > 100000 nM throughout. For the same molecule, the half-maximal inhibitory concentration (IC50) with mouse TEAD4(210-427) [5] is > 50000 nM.

B15: peptide 21 (alanine scan of 4E), acetylated (peptide)
peptide: Ac-SVEDHFAKALGATWLQIKAA
modifications: lactam 3-18
notes: as for B3
With B15, the dissociation constant (Kd) with mouse TEAD4(210-427) [3] and with GST-hTEAD1(209-426) [4] was > 100000 nM throughout. Also, the half-maximal inhibitory concentration (IC50) with mouse TEAD4(210-427) [5] was > 100000 nM.
